From US20210238276A1 (INTEGRAL MOLECULAR, published 2021)

Legend:
hsGLUT4 L260A = molecular target: T1, hsGLUT4 L260A (human, UniProt P14672 1-509); assay: flow cytometry, alanine-scan library in HEK-293T, with cytochalasin B
T1 sequence: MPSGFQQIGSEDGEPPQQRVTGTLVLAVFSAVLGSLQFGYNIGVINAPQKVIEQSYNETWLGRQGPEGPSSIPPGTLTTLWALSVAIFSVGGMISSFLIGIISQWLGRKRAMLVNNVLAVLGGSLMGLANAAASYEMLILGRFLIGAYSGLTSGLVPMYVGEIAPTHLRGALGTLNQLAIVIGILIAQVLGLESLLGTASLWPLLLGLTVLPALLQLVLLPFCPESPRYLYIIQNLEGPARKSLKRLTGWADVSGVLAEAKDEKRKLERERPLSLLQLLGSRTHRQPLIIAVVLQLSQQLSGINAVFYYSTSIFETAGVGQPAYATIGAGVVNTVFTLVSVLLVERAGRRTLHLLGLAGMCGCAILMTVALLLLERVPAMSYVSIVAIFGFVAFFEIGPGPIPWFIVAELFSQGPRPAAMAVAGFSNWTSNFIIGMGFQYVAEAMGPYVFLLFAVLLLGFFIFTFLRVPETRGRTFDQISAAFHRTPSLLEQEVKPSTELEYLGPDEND
Method in brief: (§1)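 HEK-293T cells expressing individual GLUT4 alanine mutants were stained 48 h post-transfection with anti-GLUT4 scFv MAbs (2 μg/ml), then biotinylated secondary and streptavidin-PerCP, and read by high-throughput flow cytometry. Where used, cytochalasin B (10 uM final) was given for 30 min before and during primary antibody staining.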

hsGLUT4 L296A = molecular target: T2, hsGLUT4 L296A (human, UniProt P14672 1-509); assay: as above
T2 sequence: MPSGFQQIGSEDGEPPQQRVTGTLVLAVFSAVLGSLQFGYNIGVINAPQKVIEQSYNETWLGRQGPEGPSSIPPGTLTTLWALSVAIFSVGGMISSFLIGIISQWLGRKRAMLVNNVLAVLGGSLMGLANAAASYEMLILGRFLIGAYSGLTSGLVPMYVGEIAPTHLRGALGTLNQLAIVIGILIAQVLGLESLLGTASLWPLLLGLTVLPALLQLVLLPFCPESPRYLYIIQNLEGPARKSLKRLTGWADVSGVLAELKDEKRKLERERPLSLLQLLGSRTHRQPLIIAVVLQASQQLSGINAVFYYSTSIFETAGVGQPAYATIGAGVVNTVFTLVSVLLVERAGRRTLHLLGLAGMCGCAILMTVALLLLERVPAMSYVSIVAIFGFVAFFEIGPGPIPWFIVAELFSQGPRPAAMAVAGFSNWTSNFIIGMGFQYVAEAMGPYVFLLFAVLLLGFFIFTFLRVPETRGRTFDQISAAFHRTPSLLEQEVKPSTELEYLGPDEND
Method in brief: as §1

% of binding to wild type GLUT4 (hsGLUT4 L260A): 42%
% of binding to wild type GLUT4 (hsGLUT4 L296A): 69%
B1: AB102 (Fc fusion)
scFv: ALTQPSSVSANLGGTVKITCSGGGSYGYGWYQQKSPGSAPVTVIYSNDQRPSDIPSRFSGSKSGSTATLTITGVRAEDEAIYYCGSTDSDYVGIFGAGTTLTVLGQSSRSSGGGGSSGGGGSAVTLDESGGGLQTPGGTLSLVCKASGFDFSSYATIWVRQAPGKGLEWVAGISGTGTGSSTGYAPAVKGRATISRDNGQSTVRLQLNNLRAEDTGSYFCAKSTGYGDSWIYPDSIDAWGHGTEVIVSS
notes: also called MAb AB102; not shown: Fc fragment of human IgG1, cloned in frame with the scFv
